Target: eIF2β of rabbit reticulocyte lysate (rabbit (endogenous in reticulocyte lysate)) (UniProt P41035)
UniProt P41035, sequence (P41035 whole entry): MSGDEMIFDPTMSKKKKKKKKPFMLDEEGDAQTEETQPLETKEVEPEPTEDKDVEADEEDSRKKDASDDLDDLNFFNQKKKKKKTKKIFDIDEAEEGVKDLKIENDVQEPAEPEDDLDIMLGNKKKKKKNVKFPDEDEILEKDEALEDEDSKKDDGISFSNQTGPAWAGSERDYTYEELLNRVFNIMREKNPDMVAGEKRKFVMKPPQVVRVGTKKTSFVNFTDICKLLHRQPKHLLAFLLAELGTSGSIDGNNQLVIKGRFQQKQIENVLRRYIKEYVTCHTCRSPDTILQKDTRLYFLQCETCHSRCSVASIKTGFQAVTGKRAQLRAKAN

| Binder | fold stimulation of m7GpppG-Bcl2 5′UTR-FL-poly(A)35 mRNA (25 ng) translation in nuclease treated RRL by 1.6 pmol protein (luciferase) [fold] |
| --- | --- |
| Recombinant mutant DAP5, E862K (natural protein) MESAIAEGGASRFSASSGGGGSRGAPQHYPKTAGNSEFLGKTPGQNAQKWIPARSTRRDDNSAANNSANEKERHDAIFRKVRGILNKLTPEKFDKLCLELLNVGVESKLILKGVILLIVDKALEEPKYSSLYAQLCLRLAEDAPNFDGPAAEGQPGQKQSTTFRRLLISKLQDEFENRTRNVDVYDKRENPLLPEEEEQRAIAKIKMLGNIKFIGELGKLDLIHESILHKCIKTLLEKKKRVQLKDMGEDLECLCQIMRTVGPRLDHERAKSLMDQYFARMCSLMLSKELPARIRFLLQDTVELREHHWVPRKAFLDNGPKTINQIRQDAVKDLGVFIPAPMAQGMRSDFFLEGPFMPPRMKMDRDPLGGLADMFGQMPGSGIGTGPGVIQDRFSPTMGRHRSNQLFNGHGGHIMPPTQSQFGEMGGKFMKSQGLSQLYHNQSQGLLSQLQGQSKDMPPRFSKKGQLNADEISLRPAQSFLMNKNQVPKLQPQITMIPPSAQPPRTQTPPLGQTPQLGLKTNPPLIQEKPAKTSKKPPPSKEELLKLTETVVTEYLNSGNANEAVNGVREMRAPKHFLPEMLSKVIILSLDRSDEDKEKASSLISLLKQEGIATSDNFMQAFLNVLDQCPKLEVDIPLVKSYLAQFAARAIISELVSISELAQPLESGTHFPLFLLCLQQLAKLQDREWLTELFQQSKVNMQKMLPEIDQNKDRMLEILEGKGLSFLFPLLKLEKELLKQIKLDPSPQTIYKWIKDNISPKLHVDKGFVNILMTSFLQYISSEVNPPSDETDSSSAPSKEQLEQEKQLLLSFKPVMQKFLHDHVDLQVSALYALQVHCYNSNFPKGMLLRFFVHFYDMEIIKEEAFLAWKEDITQEFPGKGKALFQVNQWLTWLETAEEEESEEEAD | 1.65 |
| Recombinant human DAP5 (1–907) (natural protein) MESAIAEGGASRFSASSGGGGSRGAPQHYPKTAGNSEFLGKTPGQNAQKWIPARSTRRDDNSAANNSANEKERHDAIFRKVRGILNKLTPEKFDKLCLELLNVGVESKLILKGVILLIVDKALEEPKYSSLYAQLCLRLAEDAPNFDGPAAEGQPGQKQSTTFRRLLISKLQDEFENRTRNVDVYDKRENPLLPEEEEQRAIAKIKMLGNIKFIGELGKLDLIHESILHKCIKTLLEKKKRVQLKDMGEDLECLCQIMRTVGPRLDHERAKSLMDQYFARMCSLMLSKELPARIRFLLQDTVELREHHWVPRKAFLDNGPKTINQIRQDAVKDLGVFIPAPMAQGMRSDFFLEGPFMPPRMKMDRDPLGGLADMFGQMPGSGIGTGPGVIQDRFSPTMGRHRSNQLFNGHGGHIMPPTQSQFGEMGGKFMKSQGLSQLYHNQSQGLLSQLQGQSKDMPPRFSKKGQLNADEISLRPAQSFLMNKNQVPKLQPQITMIPPSAQPPRTQTPPLGQTPQLGLKTNPPLIQEKPAKTSKKPPPSKEELLKLTETVVTEYLNSGNANEAVNGVREMRAPKHFLPEMLSKVIILSLDRSDEDKEKASSLISLLKQEGIATSDNFMQAFLNVLDQCPKLEVDIPLVKSYLAQFAARAIISELVSISELAQPLESGTHFPLFLLCLQQLAKLQDREWLTELFQQSKVNMQKMLPEIDQNKDRMLEILEGKGLSFLFPLLKLEKELLKQIKLDPSPQTIYKWIKDNISPKLHVDKGFVNILMTSFLQYISSEVNPPSDETDSSSAPSKEQLEQEKQLLLSFKPVMQKFLHDHVDLQVSALYALQVHCYNSNFPKGMLLRFFVHFYDMEIIEEEAFLAWKEDITQEFPGKGKALFQVNQWLTWLETAEEEESEEEAD | 4 |
